Test results as given in US20230002480A1.

How the values were obtained:
Experiment in all cases: cell-based or functional assay
[1] = biological target: HIV-1 Env of pseudovirus 1054_07_TC4_1499 (HIV-1)
[2] = biological target: HIV-1 Env of pseudovirus 263-8 (HIV-1)
[3] = biological target: HIV-1 Env of pseudovirus 6535.3 (HIV-1)
[4] = biological target: HIV-1 Env of pseudovirus 928-28 (HIV-1)
[5] = biological target: HIV-1 Env of pseudovirus CNE17 (HIV-1)
[6] = biological target: HIV-1 Env of pseudovirus CNE19 (HIV-1)
[7] = biological target: HIV-1 Env of pseudovirus CNE58 (HIV-1)
[8] = biological target: HIV-1 Env of pseudovirus Ce0682_E4 (HIV-1)
[9] = biological target: HIV-1 Env of pseudovirus Ce1086_B2 (HIV-1)
[10] = biological target: HIV-1 Env of pseudovirus Ce1172_H1 (HIV-1)
[11] = biological target: HIV-1 Env of pseudovirus Ce2010_F5 (HIV-1)
[12] = biological target: HIV-1 Env of pseudovirus Ce2060_G9 (HIV-1)
[13] = biological target: HIV-1 Env of pseudovirus Du156.12 (HIV-1)
[14] = biological target: HIV-1 Env of pseudovirus HIV-16845-2.22 (HIV-1)
[15] = biological target: HIV-1 Env of pseudovirus MS208.A1 (HIV-1)
[16] = biological target: HIV-1 Env of pseudovirus PVO.4 (HIV-1)
[17] = biological target: HIV-1 Env of pseudovirus Q259.d2.17 (HIV-1)
[18] = biological target: HIV-1 Env of pseudovirus Q461.e2 (HIV-1)
[19] = biological target: HIV-1 Env of pseudovirus Q769.d22 (HIV-1)
[20] = biological target: HIV-1 Env of pseudovirus Q842.d12 (HIV-1)
[21] = biological target: HIV-1 Env of pseudovirus QH0692.42 (HIV-1)
[22] = biological target: HIV-1 Env of pseudovirus WEAU_d15_410_787 (HIV-1)
[23] = biological target: HIV-1 Env of pseudovirus ZM109F.PB4 (HIV-1)
[24] = biological target: HIV-1 Env of pseudovirus ZM247v1(Rev-) (HIV-1)
[25] = biological target: HIV-1 Env of pseudovirus ZM249M.PL1 (HIV-1)

Question: PG9 (antibody) was tested. Which IC50, titer in TZM.bl cells [1] did it give?
Answer: > 50 µg/mL

Question: And the IC80, titer in TZM.bl cells [1]?
Answer: > 50 µg/mL

Question: And the IC50, titer in TZM.bl cells [2]?
Answer: 0.293 µg/mL

Question: And the IC80, titer in TZM.bl cells [2]?
Answer: 1.05 µg/mL

Question: What about the IC50, titer in TZM.bl cells [3] of the same substance?
Answer: 0.176 µg/mL

Question: And the IC80, titer in TZM.bl cells [3]?
Answer: 0.627 µg/mL

Question: What about the IC50, titer in TZM.bl cells [4] of the same substance?
Answer: 0.101 µg/mL

Question: And the IC80, titer in TZM.bl cells [4]?
Answer: 0.45 µg/mL

Question: What about the IC50, titer in TZM.bl cells [5] of the same substance?
Answer: 0.21 µg/mL

Question: What about the IC80, titer in TZM.bl cells [5] of the same substance?
Answer: 0.484 µg/mL

Question: And the IC50, titer in TZM.bl cells [6]?
Answer: 0.024 µg/mL

Question: What about the IC80, titer in TZM.bl cells [6] of the same substance?
Answer: 0.146 µg/mL

Question: And the IC50, titer in TZM.bl cells [7]?
Answer: 0.038 µg/mL

Question: And the IC80, titer in TZM.bl cells [7]?
Answer: 0.122 µg/mL

Question: And the IC50, titer in TZM.bl cells [8]?
Answer: 0.196 µg/mL

Question: And the IC80, titer in TZM.bl cells [8]?
Answer: 0.698 µg/mL

Question: And the IC50, titer in TZM.bl cells [9]?
Answer: > 50 µg/mL

Question: And the IC80, titer in TZM.bl cells [9]?
Answer: > 50 µg/mL

Question: What about the IC50, titer in TZM.bl cells [10] of the same substance?
Answer: 0.07 µg/mL

Question: And the IC80, titer in TZM.bl cells [10]?
Answer: 0.206 µg/mL

Question: What about the IC50, titer in TZM.bl cells [11] of the same substance?
Answer: > 50 µg/mL

Question: And the IC80, titer in TZM.bl cells [11]?
Answer: > 50 µg/mL

Question: What about the IC50, titer in TZM.bl cells [12] of the same substance?
Answer: 0.045 µg/mL

Question: And the IC80, titer in TZM.bl cells [12]?
Answer: 0.172 µg/mL

Question: And the IC50, titer in TZM.bl cells [13]?
Answer: 0.026 µg/mL

Question: What about the IC80, titer in TZM.bl cells [13] of the same substance?
Answer: 0.19 µg/mL

Question: And the IC50, titer in TZM.bl cells [14]?
Answer: 4.4 µg/mL

Question: And the IC80, titer in TZM.bl cells [14]?
Answer: > 50 µg/mL

Question: And the IC50, titer in TZM.bl cells [15]?
Answer: 0.005 µg/mL

Question: And the IC80, titer in TZM.bl cells [15]?
Answer: 0.014 µg/mL

Question: And the IC50, titer in TZM.bl cells [16]?
Answer: 10.6 µg/mL

Question: And the IC80, titer in TZM.bl cells [16]?
Answer: > 50 µg/mL

Question: And the IC50, titer in TZM.bl cells [17]?
Answer: 0.029 µg/mL

Question: What about the IC80, titer in TZM.bl cells [17] of the same substance?
Answer: 1.38 µg/mL

Question: What about the IC50, titer in TZM.bl cells [18] of the same substance?
Answer: 1.48 µg/mL

Question: What about the IC80, titer in TZM.bl cells [18] of the same substance?
Answer: 8.72 µg/mL

Question: And the IC50, titer in TZM.bl cells [19]?
Answer: 0.025 µg/mL

Question: What about the IC80, titer in TZM.bl cells [19] of the same substance?
Answer: 0.068 µg/mL

Question: What about the IC50, titer in TZM.bl cells [20] of the same substance?
Answer: 0.023 µg/mL

Question: What about the IC80, titer in TZM.bl cells [20] of the same substance?
Answer: 0.081 µg/mL

Question: And the IC50, titer in TZM.bl cells [21]?
Answer: > 50 µg/mL

Question: And the IC80, titer in TZM.bl cells [21]?
Answer: > 50 µg/mL

Question: And the IC50, titer in TZM.bl cells [22]?
Answer: 4.08 µg/mL

Question: What about the IC80, titer in TZM.bl cells [22] of the same substance?
Answer: > 50 µg/mL

Question: What about the IC50, titer in TZM.bl cells [23] of the same substance?
Answer: 0.256 µg/mL

Question: And the IC80, titer in TZM.bl cells [23]?
Answer: 6.69 µg/mL

Question: And the IC50, titer in TZM.bl cells [24]?
Answer: 0.112 µg/mL

Question: And the IC80, titer in TZM.bl cells [24]?
Answer: 0.323 µg/mL

Question: And the IC50, titer in TZM.bl cells [25]?
Answer: 0.166 µg/mL

Question: What about the IC80, titer in TZM.bl cells [25] of the same substance?
Answer: 1.41 µg/mL

Question: With PG16 (antibody) as the substance, how does the IC50, titer in TZM.bl cells [1] read?
Answer: > 50 µg/mL

Question: And the IC80, titer in TZM.bl cells [1]?
Answer: > 50 µg/mL

Question: What about the IC50, titer in TZM.bl cells [2] of the same substance?
Answer: 0.347 µg/mL

Question: And the IC80, titer in TZM.bl cells [2]?
Answer: 4.97 µg/mL

Question: And the IC50, titer in TZM.bl cells [3]?
Answer: 0.653 µg/mL

Question: What about the IC80, titer in TZM.bl cells [3] of the same substance?
Answer: > 50 µg/mL

Question: What about the IC50, titer in TZM.bl cells [4] of the same substance?
Answer: 0.034 µg/mL

Question: And the IC80, titer in TZM.bl cells [4]?
Answer: 0.237 µg/mL

Question: And the IC50, titer in TZM.bl cells [5]?
Answer: 0.029 µg/mL

Question: And the IC80, titer in TZM.bl cells [5]?
Answer: 0.132 µg/mL

Question: And the IC50, titer in TZM.bl cells [6]?
Answer: 0.024 µg/mL

Question: What about the IC80, titer in TZM.bl cells [6] of the same substance?
Answer: 3.07 µg/mL

Question: What about the IC50, titer in TZM.bl cells [7] of the same substance?
Answer: 0.044 µg/mL

Question: What about the IC80, titer in TZM.bl cells [7] of the same substance?
Answer: 0.25 µg/mL

Question: And the IC50, titer in TZM.bl cells [8]?
Answer: 0.026 µg/mL

Question: And the IC80, titer in TZM.bl cells [8]?
Answer: 0.202 µg/mL

Question: And the IC50, titer in TZM.bl cells [9]?
Answer: > 50 µg/mL

Question: What about the IC80, titer in TZM.bl cells [9] of the same substance?
Answer: > 50 µg/mL

Question: What about the IC50, titer in TZM.bl cells [10] of the same substance?
Answer: 0.007 µg/mL

Question: And the IC80, titer in TZM.bl cells [10]?
Answer: 0.037 µg/mL

Question: What about the IC50, titer in TZM.bl cells [11] of the same substance?
Answer: > 50 µg/mL

Question: And the IC80, titer in TZM.bl cells [11]?
Answer: > 50 µg/mL

Question: What about the IC50, titer in TZM.bl cells [12] of the same substance?
Answer: 0.075 µg/mL

Question: And the IC80, titer in TZM.bl cells [12]?
Answer: 1.71 µg/mL

Question: What about the IC50, titer in TZM.bl cells [13] of the same substance?
Answer: 0.006 µg/mL

Question: What about the IC80, titer in TZM.bl cells [13] of the same substance?
Answer: 0.026 µg/mL

Question: And the IC50, titer in TZM.bl cells [14]?
Answer: 3.13 µg/mL

Question: What about the IC80, titer in TZM.bl cells [14] of the same substance?
Answer: > 50 µg/mL

Question: What about the IC50, titer in TZM.bl cells [15] of the same substance?
Answer: 0.002 µg/mL

Question: What about the IC80, titer in TZM.bl cells [15] of the same substance?
Answer: 0.004 µg/mL

Question: What about the IC50, titer in TZM.bl cells [16] of the same substance?
Answer: 15.3 µg/mL

Question: What about the IC80, titer in TZM.bl cells [16] of the same substance?
Answer: > 50 µg/mL

Question: And the IC50, titer in TZM.bl cells [17]?
Answer: 0.065 µg/mL

Question: What about the IC80, titer in TZM.bl cells [17] of the same substance?
Answer: 45.9 µg/mL

Question: What about the IC50, titer in TZM.bl cells [18] of the same substance?
Answer: 1.75 µg/mL

Question: And the IC80, titer in TZM.bl cells [18]?
Answer: > 50 µg/mL

Question: And the IC50, titer in TZM.bl cells [19]?
Answer: 0.005 µg/mL

Question: What about the IC80, titer in TZM.bl cells [19] of the same substance?
Answer: 0.018 µg/mL

Question: What about the IC50, titer in TZM.bl cells [20] of the same substance?
Answer: 0.032 µg/mL

Question: And the IC80, titer in TZM.bl cells [20]?
Answer: > 0.25 µg/mL

Question: And the IC50, titer in TZM.bl cells [21]?
Answer: > 50 µg/mL

Question: And the IC80, titer in TZM.bl cells [21]?
Answer: > 50 µg/mL

Question: What about the IC50, titer in TZM.bl cells [22] of the same substance?
Answer: 0.435 µg/mL

Question: And the IC80, titer in TZM.bl cells [22]?
Answer: > 50 µg/mL

Question: And the IC50, titer in TZM.bl cells [23]?
Answer: 7.03 µg/mL

Question: And the IC80, titer in TZM.bl cells [23]?
Answer: > 50 µg/mL

Question: What about the IC50, titer in TZM.bl cells [24] of the same substance?
Answer: 0.016 µg/mL

Question: What about the IC80, titer in TZM.bl cells [24] of the same substance?
Answer: 0.189 µg/mL

Question: And the IC50, titer in TZM.bl cells [25]?
Answer: 0.127 µg/mL

Question: What about the IC80, titer in TZM.bl cells [25] of the same substance?
Answer: 18.1 µg/mL
